Source: PMC11623921 (Nature chemical biology, 2023)

What was measured:
TnmJ = experiment: isothermal titration calorimetry; format: binding, Streptomyces sp. CB03234; conditions: native substrate
[1] = molecular target: TnmJ (Streptomyces sp. CB03234); experiment: crystal structure
[2] = molecular target: TnmJ (Streptomyces sp. CB03234); experiment: SEC

Row | stoichiometry N [1] | stoichiometry N [2] | Substance | Kd (TnmJ) [µM]
1 | – | – | TNM I [compound 8] | 3.4
2 | 2 | 2 | TnmJ (enzyme) | –
